Numbering of substitutions follows the chain as printed.
T1: mouse MuSK (mouse, UniProt Q61006 22-494, limits assumed)
T1 construct: Coated on ELISA plates or on the Biacore chip; also called full length mouse MuSK; mouse MuSK (in house produced in HEK293 cells)
T1 sequence (looked up): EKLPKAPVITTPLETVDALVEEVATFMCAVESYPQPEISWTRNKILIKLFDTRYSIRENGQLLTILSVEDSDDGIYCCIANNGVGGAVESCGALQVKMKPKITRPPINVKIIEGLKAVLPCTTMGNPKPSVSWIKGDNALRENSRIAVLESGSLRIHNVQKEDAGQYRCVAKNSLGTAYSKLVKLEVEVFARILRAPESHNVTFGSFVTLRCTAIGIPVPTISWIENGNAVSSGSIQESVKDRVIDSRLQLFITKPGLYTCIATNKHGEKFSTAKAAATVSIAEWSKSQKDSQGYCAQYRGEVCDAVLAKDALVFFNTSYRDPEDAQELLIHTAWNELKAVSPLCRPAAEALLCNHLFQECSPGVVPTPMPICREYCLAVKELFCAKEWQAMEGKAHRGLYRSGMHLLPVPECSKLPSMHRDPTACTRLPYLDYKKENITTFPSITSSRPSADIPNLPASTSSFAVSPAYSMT

T2: hECD: full-length extracellular region of human MuSK (E22 to T495) with C-terminal Avi- and His6-tags (human, UniProt O15146 22-495, biotinylated in vitro using the BirA enzyme)
T2 construct: also called human ECD; not shown: Avi- and His6-tags
T2 sequence: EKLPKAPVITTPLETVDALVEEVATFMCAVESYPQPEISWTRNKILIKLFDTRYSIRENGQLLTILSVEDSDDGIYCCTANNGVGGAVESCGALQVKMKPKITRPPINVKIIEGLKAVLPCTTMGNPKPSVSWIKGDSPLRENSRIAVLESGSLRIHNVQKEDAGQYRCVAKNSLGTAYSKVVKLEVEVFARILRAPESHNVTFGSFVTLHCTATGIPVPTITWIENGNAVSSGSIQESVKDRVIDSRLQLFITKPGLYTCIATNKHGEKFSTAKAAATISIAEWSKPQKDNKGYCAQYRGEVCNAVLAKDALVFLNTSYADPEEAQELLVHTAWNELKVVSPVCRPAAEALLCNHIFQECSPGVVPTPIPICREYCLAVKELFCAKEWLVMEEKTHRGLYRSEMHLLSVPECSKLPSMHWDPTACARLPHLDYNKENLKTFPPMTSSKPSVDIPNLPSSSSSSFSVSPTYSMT

T3: mFz: Fz domain and C-terminal flanking sequence of mouse MuSK (D307 to T494) with C-terminal Avi- and … (mouse, UniProt Q61006 307-494, limits assumed, biotinylated in vitro using the BirA enzyme)
T3 construct: also called mouse Fz; not shown: Avi- and His6-tags
T3 sequence (looked up): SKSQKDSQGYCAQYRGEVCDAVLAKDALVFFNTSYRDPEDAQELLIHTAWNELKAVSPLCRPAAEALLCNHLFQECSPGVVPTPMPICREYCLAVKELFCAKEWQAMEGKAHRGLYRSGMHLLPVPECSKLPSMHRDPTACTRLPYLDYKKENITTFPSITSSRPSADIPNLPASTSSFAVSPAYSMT

T4: mECD: full-length extracellular region of mouse MuSK (E22 to T494) with C-terminal Avi- and His6-tags (mouse, UniProt Q61006 22-494, biotinylated in vitro using the BirA enzyme)
T4 construct: range 22-494; also called mouse ECD; not shown: Avi- and His6-tags
T4 sequence (looked up): T1 sequence (looked up)

T5: hFz: Fz domain and C-terminal flanking sequence of human MuSK (K314-T495) with C-terminal Avi- and His6-tags (human, UniProt O15146 314-495, biotinylated in vitro using the BirA enzyme)
T5 construct: also called human Fz; not shown: Avi- and His6-tags
T5 sequence: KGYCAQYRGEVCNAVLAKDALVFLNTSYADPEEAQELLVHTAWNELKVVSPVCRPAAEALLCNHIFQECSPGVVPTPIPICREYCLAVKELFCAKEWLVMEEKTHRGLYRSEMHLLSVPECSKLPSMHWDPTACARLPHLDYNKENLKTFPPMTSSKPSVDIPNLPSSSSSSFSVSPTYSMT

B1: X2 Fab (Fab, V domains shown)
VH: EVQLVESGGGLVQPGGSLRLSCAASGFTVSSSSIHWVRQAPGKGLEWVASISSSYGSTSYADSVKGRFTISADTSKNTAYLQMNSLRAEDTAVYYCARSEGDRYVSGYMGMDYWGQGTLVTVSS
VL: DIQMTQSPSSLSASVGDRVTITCRASQSVSSAVAWYQQKPGKAPKLLIYSASSLYSGVPSRFSGSRSGTDFTLTISSLQPEDFATYYCQQSGVWLITFGQGTKVEIK
notes: Fab format
B2: X3 Fab (Fab, V domains shown)
VH: EVQLVESGGGLVQPGGSLRLSCAASGFTISSSSIHWVRQAPGKGLEWVASISSSSGYTYYADSVKGRFTISADTSKNTAYLQMNSLRAEDTAVYYCARSWYEMWMSGYFGFDYWGQGTLVTVSS
VL: B1 VL with G92S, V93S, W94S
notes: Fab format

Experiments:
mouse MuSK = biological target: T1, mouse MuSK; assay: Biacore T200, MuSK on chip (200RU), 22.2 nM Fab, dissociation pH 5.5
How it was run: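 Surface plasmon resonance was run with both human and mouse MuSK immobilized on the sensor chip. Fab association was always performed at pH 7.4 before the dissociation phase. Kinetic parameters were calculated from the binding curves.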

[1] = biological target: T2, hECD: full-length extracellular region …; assay: bead-binding assay, Fab format: biotinylated antigen on streptavidin beads, flow cytometry, 1:1 fit; average ± s.d., n=3
[2] = biological target: T3, mFz: Fz domain and C-terminal flanking …; assay: bead-binding titration, Fab format: antigen immobilized on streptavidin beads, MFI by flow cytometry, curve is the 1:1 fit
[3] = biological target: T2, hECD: full-length extracellular region …; assay: as above
[4] = biological target: T4, mECD: full-length extracellular region …; assay: as above
[5] = biological target: T5, hFz: Fz domain and C-terminal flanking …; assay: as above

Binder | koff (mouse MuSK) | Kd [1] | EC50 (read off the curve) [2] | EC50 (read off the curve) [3] | EC50 (read off the curve) [4] | EC50 (read off the curve) [5]
B1 | 0.00051 s⁻¹ | 860 pM | ~500 pM | ~900 pM | ~600 pM | ~500 pM
B2 | 0.0246 s⁻¹ | 160 pM | ~300 pM | ~200 pM | ~400 pM | ~100 pM

Reference: patent US20230151091A1 (NEW YORK UNIVERSITY, published 2023)
